US8840891 (RSR, dated 2014)
Where two headings read alike, the source gives them in different places.

Legend:
[1] = molecular target: TSHR with Asp160 mutated to Lysine (human) (UniProt P16473); test: cell-based or functional assay
[2] = molecular target: wild type human TSHR (human) (UniProt P16473); test: cell-based or functional assay
[3] = molecular target: human TSHR, wild type, expressed on CHO cells (human) (UniProt P16473); test: cell-based or functional assay
[4] = molecular target: human TSHR with activating mutation A623I, on CHO cells (human) (UniProt P16473); test: cell-based or functional assay
[5] = molecular target: human TSHR, wild type, expressed on CHO cells (human) (UniProt P16473); test: cell-based or functional assay; remark: listed apart in the source
[6] = molecular target: TSHR coated onto tubes (TSHR coated tubes) (human) (UniProt P16473); test: TSHR coated tubes
[7] = molecular target: TSHR coated onto tubes (TSHR coated tubes) (human) (UniProt P16473); test: TSHR coated tubes, in presence of HBD pool
[8] = molecular target: TSHR coated onto tubes (TSHR coated tubes) (human) (UniProt P16473); test: TSHR coated tubes, in the presence of HBD pool (Table 5)
[9] = molecular target: TSHR coated onto tubes (TSHR coated tubes) (human) (UniProt P16473); test: TSHR coated tubes, in the presence of HBD pool (Tables 4a, 4b)
[10] = molecular target: TSHR coated on ELISA plate wells (RSR Ltd) (human) (UniProt P16473); test: ELISA on TSHR-coated wells, inhibition of TSH-biotin binding
[11] = molecular target: TSHR coated on ELISA plate wells (RSR Ltd) (human) (UniProt P16473); test: ELISA on TSHR-coated wells, inhibition of 5C9 IgG-biotin binding
[12] = molecular target: TSHR coated on ELISA plate wells (RSR Ltd) (human) (UniProt P16473); test: ELISA on TSHR-coated wells, TSH-biotin binding with HBD pool (no competitor)

## M22 (antibody)
[1]
  Mutated/wild type (%); M22 only: 85%
  cyclic AMP; M22 3 ng/mL only (fmol/cell well): 14300
  cyclic AMP; M22 3 ng/mL only (repeat determination) (fmol/cell well): 18900
[2]
  cyclic AMP; M22 3 ng/mL only (fmol/cell well): 16800
  cyclic AMP; M22 3 ng/mL only (repeat determination) (fmol/cell well): 16700

## 9D33 IgG, mouse monoclonal antibody to the TSHR with blocking activity
[3]
  cyclic AMP; Exp 1; 9D33 0.01 µg/mL + M22 3 ng/mL: 47.5 pmol/mL
  cyclic AMP; Exp 1; 9D33 0.1 µg/mL + M22 3 ng/mL: 27.6 pmol/mL
  cyclic AMP; Exp 1; 9D33 1 µg/mL + M22 3 ng/mL: 5.25 pmol/mL
  cyclic AMP; Exp 1; 9D33 10 µg/mL + M22 3 ng/mL: 2.5 pmol/mL
  cyclic AMP; Exp 1; 9D33 100 µg/mL + M22 3 ng/mL: 2.13 pmol/mL
  cyclic AMP; Exp 1; 9D33 100 µg/mL only: 1.51 pmol/mL
  cyclic AMP; Exp 2; 9D33 0.001 µg/mL + M22 3 ng/mL: 79.1 pmol/mL
  cyclic AMP; Exp 2; 9D33 0.01 µg/mL + M22 3 ng/mL: 60.2 pmol/mL
  cyclic AMP; Exp 2; 9D33 0.1 µg/mL + M22 3 ng/mL: 38.7 pmol/mL
  cyclic AMP; Exp 2; 9D33 1 µg/mL + M22 3 ng/mL: 6.03 pmol/mL
  cyclic AMP; Exp 2; 9D33 10 µg/mL + M22 3 ng/mL: 0.67 pmol/mL
  cyclic AMP; Exp 2; 9D33 100 µg/mL + M22 3 ng/mL: 1.42 pmol/mL
  cyclic AMP; Exp 2; 9D33 100 µg/mL only: 1.76 pmol/mL
  cyclic AMP; Exp 3; 9D33 0.001 µg/mL + M22 0.3 ng/mL: 12.8 pmol/mL
  cyclic AMP; Exp 3; 9D33 0.01 µg/mL + M22 0.3 ng/mL: 15.2 pmol/mL
  cyclic AMP; Exp 3; 9D33 0.1 µg/mL + M22 0.3 ng/mL: 5.38 pmol/mL
  cyclic AMP; Exp 3; 9D33 1 µg/mL + M22 0.3 ng/mL: 0.83 pmol/mL
  cyclic AMP; Exp 3; 9D33 10 µg/mL + M22 0.3 ng/mL: 0.97 pmol/mL
  cyclic AMP; Exp 3; 9D33 100 µg/mL + M22 0.3 ng/mL: 1.03 pmol/mL
  cyclic AMP; Exp 3; 9D33 100 µg/mL only: 0.88 pmol/mL
  cyclic AMP; Exp 4; 9D33 0.001 µg/mL + M22 0.3 ng/mL: 43.2 pmol/mL
  cyclic AMP; Exp 4; 9D33 0.01 µg/mL + M22 0.3 ng/mL: 38.9 pmol/mL
  cyclic AMP; Exp 4; 9D33 0.1 µg/mL + M22 0.3 ng/mL: 27.6 pmol/mL
  cyclic AMP; Exp 4; 9D33 1 µg/mL + M22 0.3 ng/mL: 2.66 pmol/mL
  cyclic AMP; Exp 4; 9D33 10 µg/mL + M22 0.3 ng/mL: 1.25 pmol/mL
  cyclic AMP; Exp 4; 9D33 100 µg/mL + M22 0.3 ng/mL: 2 pmol/mL
  cyclic AMP; Exp 4; 9D33 100 µg/mL only: 2.38 pmol/mL
[4]
  basal cyclic AMP (buffer only 36.89); 9D33 IgG 0.001 µg/mL: 29.6 pmol/mL
  basal cyclic AMP (buffer only 36.89); 9D33 IgG 0.01 µg/mL: 27.6 pmol/mL
  basal cyclic AMP (buffer only 36.89); 9D33 IgG 0.1 µg/mL: 31.8 pmol/mL
  basal cyclic AMP (buffer only 36.89); 9D33 IgG 1 µg/mL: 40.1 pmol/mL
[5]
  % inhibition of basal cyclic AMP production; Exp 3; 9D33 IgG 0.001 µg/mL: 12%
  cyclic AMP; Exp 1; 9D33 1 µg/mL + TSH 3 ng/mL: 28.7 pmol/mL
  cyclic AMP; Exp 1; 9D33 10 µg/mL + TSH 3 ng/mL: 23.8 pmol/mL
  cyclic AMP; Exp 1; 9D33 10 µg/mL only: 2.9 pmol/mL
  cyclic AMP; Exp 2; 9D33 1 µg/mL + TSH 3 ng/mL: 19 pmol/mL
  cyclic AMP; Exp 2; 9D33 10 µg/mL + TSH 3 ng/mL: 9.5 pmol/mL
  cyclic AMP; Exp 2; 9D33 10 µg/mL only: 1.6 pmol/mL
  cyclic AMP; Exp 3; 9D33 0.01 µg/mL + TSH 3 ng/mL: 47.1 pmol/mL
  cyclic AMP; Exp 3; 9D33 0.1 µg/mL + TSH 3 ng/mL: 35.1 pmol/mL
  cyclic AMP; Exp 3; 9D33 1 µg/mL + TSH 3 ng/mL: 27.8 pmol/mL
  cyclic AMP; Exp 3; 9D33 10 µg/mL + TSH 3 ng/mL: 13.5 pmol/mL
  cyclic AMP; Exp 3; 9D33 100 µg/mL + TSH 3 ng/mL: 10.5 pmol/mL
  cyclic AMP; Exp 3; 9D33 100 µg/mL only: 1.14 pmol/mL
  cyclic AMP; Exp 4; 9D33 0.1 µg/mL + TSH 0.3 ng/mL: 20.2 pmol/mL
  cyclic AMP; Exp 4; 9D33 1 µg/mL + TSH 0.3 ng/mL: 9.01 pmol/mL
  cyclic AMP; Exp 4; 9D33 10 µg/mL + TSH 0.3 ng/mL: 4.23 pmol/mL
  cyclic AMP; Exp 4; 9D33 100 µg/mL + TSH 0.3 ng/mL: 3.53 pmol/mL
  cyclic AMP; Exp 4; 9D33 100 µg/mL only: 0.99 pmol/mL
  cyclic AMP; Exp 5; 9D33 0.1 µg/mL + TSH 0.3 ng/mL: 14.7 pmol/mL
  cyclic AMP; Exp 5; 9D33 1 µg/mL + TSH 0.3 ng/mL: 6.38 pmol/mL
  cyclic AMP; Exp 5; 9D33 5 µg/mL + TSH 0.3 ng/mL: 3.71 pmol/mL
  cyclic AMP; Exp 5; 9D33 10 µg/mL + TSH 0.3 ng/mL: 3.57 pmol/mL
  cyclic AMP; Exp 5; 9D33 10 µg/mL only: 2.07 pmol/mL

## M22 IgG (human monoclonal thyroid stimulating autoantibody, hMAb TSHR1)
[6]
  average % binding of labelled tracer: 21%
[7]
  % binding of labelled tracer: 17%
[8]
  % of labelled protein bound: 24%
[9]
  % of labelled protein bound: 20%

## M22 IgG, human monoclonal thyroid stimulating autoantibody (hMAb TSHR1)
[10]
  % inhibition: 15%
[11]
  % inhibition: 28%

## 125I-labelled TSH (ligand)
[6]
  average % binding of labelled tracer: 14%
[7]
  % binding of labelled tracer: 12%
[8]
  % of labelled protein bound: 15%
[9]
  % of labelled protein bound: 12%

## TSH-biotin (ligand)
[12]
  Abs 450 nm: 2.14 Abs 450 nm
